Experimental data from patent US12269859B2, “Synthetic immune receptors and methods of use thereof” (Angeles Therapeutics, Inc., priority 2016, dated 2025).

Key:
[1] = system: target antigen-expressing cell line; assay: Jurkat NFAT-GFP assay, coculture with target cell lines expressing the respective target antigen (summary Table 10A); assay type: cell-based, human; set-up: key: The signs +/−, +, 2+ etc. after the name of the cell lines indicate the relative degree of positivity on the Jurkat-NFAT-GFP assay as measured by the % GFP positive cells; +: relative degree of positivity on the Jurkat-NFAT-GFP assay as measured by the % GFP positive cells; 2+: relative degree of positivity on the Jurkat-NFAT-GFP assay as measured by the % GFP positive cells
How it was run: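 Read-out: % GFP+ cells by FACS. SIR-transduced, puromycin-selected Jurkat NFAT-GFP (IL-2 promoter reporter) cocultured ~4–18 h with target line, E:T ~1:2; parental cells as control; graded +/−, +, 2+ relative to parental.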

RAJI cells = assay: Jurkat NFAT-GFP assay, coculture with RAJI cells; assay type: cell-based, human; conditions: overnight co-culture with RAJI cells; Table 10C
Experimental: (B) Induction of NFAT promoter driven GFP expression. The control vector- and SIR-expressing Jurkat-NFAT-GFP cocultured for 4-24 hours with the target antigen-expressing cell line (described above) and their ability to bind to the target antigen is assayed by measuring induction of GFP expression using Flow Cytometry. Cellular supernatant is collected and assayed for the induction of cytokines (e.g., IL2).
Jurkat NFAT-GFP Assay For Synthetic Immune Receptors. The Jurkat-NFAT-GFP cells are engineered in such a way that the IL-2 promoter, which carries NFAT binding sites, is cloned upstream of the GFP gene. These cells have been used to study signaling via TCR and CAR. The different SIRs were stably expressed in Jurkat NFAT-GFP cells by lentiviral mediated gene transfer, followed by selection with puromycin. The SIR-expressing Jurkat-NFAT-GFP cells were cocultured with the target cells at E:T ratio of approximately 1:2 for approximately 4 hours to 18 hours. When the interaction between SIRs and their target antigen results in activation of the NFAT pathway, GFP expression is induced.
Induction of GFP expression by coculturing of Jurkat-NFAT-GFP cells expressing different SIR constructs and the different target cells was studied essentially as described previously (Wu, Roybal, Puchner, Onuffer, & Lim, 2015). GFP expression was monitored by FACS analysis. […] In panel B, Jurkat cells expressing SIR targeting CDH6 (Clone ID: 051716-J05), CD276 (Clone ID: 050516-Q06) and Her2/neu (Clone ID: 050516-I03) were incubated with SKOV3 (top) and […] (middle and bottom) cells, respectively. […] The Jurkat-NFAT-GFP cells were engineered to express different SIRs targeting other antigens and the experiment repeated upon coculture with the target cells expressing their respective target antigen. The Jurkat-NFAT-GFP (parental) cells were used as control. […] The names of different SIRs, their SEQ ID NOs, component antigen binding domains and TCR chains can be determined by reference to Tables 7A-7H. A SIR is considered positive in the assay in case the SIR expressing Jurkat-NFAT-GFP cells show greater % GFP positive cells when cultured with the target cell line as compared to parental Jurkat-NFAT-GFP cells. […] The signs +/−, +, 2+ etc. after the name of the cell lines indicate the relative degree of positivity on the Jurkat-NFAT-GFP assay as measured by the % GFP positive cells after culture of the SIR expressing Jurkat-NFAT-GFP cells with that cell line.

B1: 102116-A05 (protein)
chain: MRLPAQLLGLLMLWVSGSSGDVVMTQSPLSLPVTPGAPASISCRSSQSIVHSNGNTYLEWYLQKPGQSPKLLIYKVSNRFSGVPDRFSGSGSGTDFTLRISRVEAEDVGIYYCFQGSHVPPTFGPGTKLEIKLEEQKLISEEDLGSGEDLKNVFPPEVAVFEPSKAEIAHTQKATLVCLATGFYPDHVELSWWVNGKEVHSGVCTDPQPLKEQPALNDSRYCLSSRLRVSATFWQNPRNHFRCQVQFYGLSENDEWTQDRAKPVTQIVSAEAWGRADCGITSASYHQGVLSATILYEILLGKATLYAVLVSALVLMAMVKRKDSRGRAKRSGSGATNFSLLKQAGDVEENPGPTSMDWIWRILFLVGAATGAHSFEEVQLVESGGGLVQPGGSLRLSCSASGFTFSSFGMHWVRQAPGKGLEWVAYISSGSSTIYYGDTVKGRFTISRDNAKNSLFLQMSSLRAEDTAVYYCAREGGYYYGRSYYTMDYWGQGTTVTVSTREQKLISEEDLGSGIQNPDPAVYQLRDSKSSDKSVCLFTDFDSQTNVSQSKDSDVYITDKCVLDMRSMDFKSNSAVAWSNKSDFACANAFNNSIIPEDTFFPSSDVPCDVKLVEKSFETDTNLNFQNLSVIGFRILLLKVAGFNLLMTLRLWSSRAKRSGSGVKQTLNFDLLKLAGDVESNPGPSRGHMTEYKPTVRLATRDDVPRAVRTLAAAFADYPATRHTVDPDRHIERVTELQELFLTRVGLDIGKVWVADDGAAVAVWTTPESVEAGAVFAEIGPRMAELSGSRLAAQQQMEGLLAPHRPKEPAWFLATVGVSPDHQGKGLGSAVVLPGVEAAERAGVPAFLETSAPRNLPFYERLGFTVTADVEVPEGPRTWCMTRKPGA
modifications: Synthetic Immune Receptor (SIR)
NFAT-GFP ASSAY Positive Cell lines: RAJI ([1]; SIR-expressing Jurkat-NFAT-GFP cells cocultured with RAJI, relative % GFP positive cells): RAJI (+/−), U266
NFAT-GFP ASSAY Positive Cell lines: U266 ([1]; SIR-expressing Jurkat-NFAT-GFP cells cocultured with U266, relative % GFP positive cells): (+/−)

B2: 1038 (protein)
chain: MALPVTALLLPLALLLHAARPEIVLTQSPATLSLSPGERATLSCSASSSVSYMHWYQQKPGQAPRLLIYDTSKLASGIPARFSGSGSGTDFTLTISSLEPEDVAVYYCFQGSVYPFTFGQGTKLEIKRLEGKPIPNPLLGLDSTGSGEDLKNVFPPEVAVFEPSEAEISHTQKATLVCLATGFYPDHVELSWWVNGKEVHSGVSTDPQPLKEQPALNDSRYCLSSRLRVSATFWQNPRNHFRCQVQFYGLSENDEWTQDRAKPVTQIVSAEAWGRADCGFTSESYQQGVLSATILYEILLGKATLYAVLVSALVLMAMVKRKDSRGRAKRSGSGATNFSLLKQAGDVEENPGPTSMDWIWRILFLVGAATGAHSFEQVQLQESGPGLVKPSQTLSLTCTVSGGSISTSGMGVGWIRQHPGKGLEWIGHIWWDDDKRYNPALKSRVTISVDTSKNQFSLKLSSVTAADTAVYYCARMELWSYYFDYWGQGTLVTVSSTREQKLISEEDGSGIQNPDPAVYQLRDSKSSDKSVCLFTDFDSQTNVSQSKDSDVYITDKTVLDMRSMDFKSNSAVAWSNKSDFACANAFNNSIIPEDTFFPSPESSCDVKLVEKSFETDTNLNFQNLSVIGFRILLLKVAGFNLLMTLRLWSSRAKRSGSGVKQTLNFDLLKLAGDVESNPGPSRGHMTEYKPTVRLATRDDVPRAVRTLAAAFADYPATRHTVDPDRHIERVTELQELFLTRVGLDIGKVWVADDGAAVAVWTTPESVEAGAVFAEIGPRMAELSGSRLAAQQQMEGLLAPHRPKEPAWFLATVGVSPDHQGKGLGSAVVLPGVEAAERAGVPAFLETSAPRNLPFYERLGFTVTADVEVPEGPRTWCMTRKPGA
modifications: Synthetic polynucleotide encoding a SIR
NFAT-GFP (%) (RAJI cells): 4.49%

B3: 080816-G03 (protein)
chain: MALPVTALLLPLALLLHAARPLEGKPIPNPLLGLDSTGSGEDLKNVFPPEVAVFEPSKAEIAHTQKATLVCLATGFYPDHVELSWWVNGKEVHSGVCTDPQPLKEQPALNDSRYCLSSRLRVSATFWQNPRNHFRCQVQFYGLSENDEWTQDRAKPVTQIVSAEAWGRADCGITSASYHQGVLSATILYEILLGKATLYAVLVSALVLMAMVKRKDSRGRAKRSGSGATNFSLLKQAGDVEENPGPTSTMALPVTALLLPLALLLHAARPDIVMTQSQKFMSTSVGDRVSIICKASQNVGTFVAWYQQKPGQSPKLLVYSASNRYTGVPDRFTGSGSGTDFTLTINNMQSEDLADYFCRQYSSYPYTFGGGTKLEIKGGGGSGGGGSGGGGSEVQLQQSGPELVKPGASMKISCKASGYSFSAYTMNWVKQSHGKNLEWIGLINPYNGGTNYNQEFEGKATLTVNKSSNTAFMELLSLTSDDSAVYYCARRDWDYFDYWGQGTTLTVSSTREQKLISEEDLGSGTPFPSLAPPIMLLVDGKQQMVVVCLVLDVAPPGLDSPIWFSAGNGSALDAFTYGPSPATDGTWTNLAHLSLPSEELASWEPLVCHTGPGAEGHSRSTQPMHLSGEASTARTCPQEPLRGTPGGALWLGVLRLLLFKLLLFDLLLTCSCLCDPAGPLPSPATTTRLRALGSHRLHPATETGGREATSSPRPQPRDRRWGDTPPGRKPGSPVRAKRSGSGVKQTLNFDLLKLAGDVESNPGPSRSRGHMTEYKPTVRLATRDDVPRAVRTLAAAFADYPATRHTVDPDRHIERVTELQELFLTRVGLDIGKVWVADDGAAVAVWTTPESVEAGAVFAEIGPRMAELSGSRLAAQQQMEGLLAPHRPKEPAWFLATVGVSPDHQGKGLGSAVVLPGVEAAERAGVPAFLETSAPRNLPFYERLGFTVTADVEVPEGPRTWCMTRKPGA
modifications: Polynucleotide encoding a Synthetic Immune Receptor (SIR)
NFAT-GFP ASSAY Positive Cell lines ([1]; coculture with TT cells): TT (+/−)

B4: 10815 (protein)
chain: MALPVTALLLPLALLLHAARPDIQMTQSPSSLSASVGDRVTITCKASDHINNWLAWYQQKPGQAPKLLIYGATTLETGVPSRFSGSGSGTDYTLTISSLQPEDFATYYCQQSWNTPWTFGQGTKLEIKRLEIQNPDPAVYQLRDSKSSDKSVCLFTDFDSQTNVSQSKDSDVYITDKCVLDMRSMDFKSNSAVAWSNKSDFACANAFNNSIIPEDTFFPSSDVPCDVKLVEKSFETDTNLNFQNLSVIGFRILLLKVAGFNLLMTLRLWSSRAKRSGSGVKQTLNFDLLKLAGDVESNPGPTSMDWIWRILFLVGAATGAHSFEQVQLQQPGAELVKPGASVKMSCKASGYAFSSYWINWMKQKPGQGLEWIGQIYPGDGDTNYNGKFKGRATLTADTSSSTAYMQLSSLTSEDSAVYFCARSITTVVGCAMDYWGQGTSVTVSSTREDLKNVFPPEVAVFEPSKAEIAHTQKATLVCLATGFYPDHVELSWWVNGKEVHSGVCTDPQPLKEQPALNDSRYCLSSRLRVSATFWQNPRNHFRCQVQFYGLSENDEWTQDRAKPVTQIVSAEAWGRADCGITSASYHQGVLSATILYEILLGKATLYAVLVSALVLMAMVKRKDSRGRAKRSGSGATNFSLLKQAGDVEENPGPSRGHMTEYKPTVRLATRDDVPRAVRTLAAAFADYPATRHTVDPDRHIERVTELQELFLTRVGLDIGKVWVADDGAAVAVWTTPESVEAGAVFAEIGPRMAELSGSRLAAQQQMEGLLAPHRPKEPAWFLATVGVSPDHQGKGLGSAVVLPGVEAAERAGVPAFLETSAPRNLPFYERLGFTVTADVEVPEGPRTWCMTRKPGA
NFAT-GFP (%) (RAJI cells): 52.36%

B5: 112916-A01 (protein)
chain: MALPVTALLLPLALLLHAARPDIVMTQTPLSLPVTPGEPASISCRSSRSLLDSDDGNTYLDWYLQKPGQSPQLLIYTLSYRASGVPDRFSGSGSGTDFTLKISRVEAEDVGVYYCMQRVEFPITFGQGTRLEIKRLEGKPIPNPLLGLDSTGSGEDLKNVFPPEVAVFEPSKAEIAHTQKATLVCLATGFYPDHVELSWWVNGKEVHSGVCTDPQPLKEQPALNDSRYCLSSRLRVSATFWQNPRNHFRCQVQFYGLSENDEWTQDRAKPVTQIVSAEAWGRADCGITSASYHQGVLSATILYEILLGKATLYAVLVSALVLMAMVKRKDSRGRAKRSGSGATNFSLLKQAGDVEENPGPTSMDWIWRILFLVGAATGAHSFEQVQLVESGGGVVQPGRSLRLSCAASGFIFSRYGMHWVRQAPGKGLKWVAVIWYDGSNKLYADSVKGRFTISRDNSKNTLYLQMNSLRAEDTAVYYCARDYYDNSRHHWGFDYWGQGTLVTVSSTREQKLISEEDGSGIQNPDPAVYQLRDSKSSDKSVCLFTDFDSQTNVSQSKDSDVYITDKCVLDMRSMDFKSNSAVAWSNKSDFACANAFNNSIIPEDTFFPSSDVPCDVKLVEKSFETDTNLNFQNLSVIGFRILLLKVAGFNLLMTLRLWSSRAKRSGSGVKQTLNFDLLKLAGDVESNPGPSRGHMTEYKPTVRLATRDDVPRAVRTLAAAFADYPATRHTVDPDRHIERVTELQELFLTRVGLDIGKVWVADDGAAVAVWTTPESVEAGAVFAEIGPRMAELSGSRLAAQQQMEGLLAPHRPKEPAWFLATVGVSPDHQGKGLGSAVVLPGVEAAERAGVPAFLETSAPRNLPFYERLGFTVTADVEVPEGPRTWCMTRKPGA
modifications: Polynucleotide encoding a Synthetic Immune Receptor (SIR)
NFAT-GFP ASSAY Positive Cell lines ([1]; coculture with SKOV3 cells): SKOV3 (+)
